The values that follow come from paper PMC4785404, “The three-dimensional structure of Clostridium absonum 7α-hydroxysteroid dehydrogenase: new insights into the conserved arginines for NADP(H) recognition” (Scientific Reports, 2016).

The test system of data set [1] is NC(=O)c1ccc[n+]([C@@H]2O[C@H](COP(=O)(O)OP(=O)(O)OC[C@H]3O[C@@H](n4cnc5c(N)ncnc54)[C@H](OP(=O)(O)O)[C@@H]3O)[C@@H](O)[C@H]2O)c1. The experiment in a line: purified protein. The note with it: assay conditions by cited earlier methods; co-substrate not given; SD in parentheses; crystal structure of complex with TCDCA also solved; varied: cofactor.
Data set [2] deals with the molecule itself. The experiment in a line: SEC; purified CA 7α-HSDH in aqueous solution; standard proteins of 669, 440, 158, 75, 44, 29 and 13.7 kDa; the dimer fraction of the first run was collected and run again; the tetramer fractions were checked by MS.

In general, kcat refers to the number of substrate molecules converted per active site and unit of time at saturation. Broadly, the kcat/Km is the turnover number divided by the Michaelis constant. Usually stoichiometry N stands for the number of molecules, sites or subunits per partner or assembly.

Several values for one entry are separate records, joined by “and”; a condition that tells them apart may be missing. Equal entries are not always repeated.

On to CA 7α-HSDH (Clostridium sardiniense), for which, in data set [1], the Km was 0.34 (0.01) mM, the kcat amounted to 13.8 s⁻¹ and the kcat/Km turned out to be 40100 M⁻¹ s⁻¹.

B1: 7α-hydroxysteroid dehydrogenase from Clostridium absonum (enzyme, UniProt G9FRD7 1-262, looked up)
chain: MKRLEGKVAIVTSSTRGIGRASAEALAKEGALVYLAARSEELANEVIADIKKQGGVAKFVYFNAREEETYTSMVEKVAEAEGRIDILVNNYGGTNVNLDKNLTAGDTDEFFRILKDNVQSVYLPAKAAIPHMEKVGGGSIVNISTIGSVVPDISRIAYCVSKSAINSLTQNIALQYARKNIRCNAVLPGLIGTRAALENMTDEFRDSFLGHVPLNRVGRPEDIANAVLYYASDDSGYVTGMIHEVAGGFALGTPQYSEYCPR
notes: 7α-hydroxysteroid dehydrogenase (CA 7α-HSDH), Clostridium absonum; the gene was cloned into pGEX-6p-1; Crystallised with NADP+ and TCDCA; also called CA 7α-HSDH; 7α-HSDH; source: E. coli BL21 (DE3), GST-fused from pGEX-6p-1, purified (monoQ, superdex 75)
With B1, the “stoichiometry N” value in data set [2] was 2 and 4.
